± gives the standard deviation of the averaged measurements.
Experiment: total protein half-life in vivo (active degradation + dilution); higher = more stable protein
[1] = E. coli NCM3722 delta-clpP delta-lon delta-hslV, growth: N-lim chemostat, doubling time 6 h
[2] = E. coli NCM3722 delta-clpP, growth: N-lim chemostat, doubling time 6 h
[3] = E. coli NCM3722 delta-hslV, growth: N-lim chemostat, doubling time 6 h
[4] = E. coli NCM3722 delta-lon, growth: N-lim chemostat, doubling time 6 h
[5] = E. coli NCM3722 delta-smpB, growth: N-lim chemostat, doubling time 6 h
[6] = wild type E. coli NCM3722, growth: C-lim chemostat, doubling time 3 h
[7] = wild type E. coli NCM3722, growth: C-lim chemostat, doubling time 6 h
[8] = wild type E. coli NCM3722, growth: C-lim chemostat, doubling time 12 h
[9] = wild type E. coli NCM3722, growth: N-lim chemostat, doubling time 6 h
[10] = wild type E. coli NCM3722, growth: N-lim chemostat, doubling time 12 h
[11] = wild type E. coli NCM3722, growth: P-lim chemostat, doubling time 6 h
[12] = wild type E. coli NCM3722, growth: P-lim chemostat, doubling time 12 h

Sequence | total protein half-life in vivo [1] [h] | total protein half-life in vivo [2] [h] | total protein half-life in vivo [3] [h] | total protein half-life in vivo [4] [h] | total protein half-life in vivo [5] [h] | total protein half-life in vivo [6] [h] | total protein half-life in vivo [7] [h] | total protein half-life in vivo [8] [h] | total protein half-life in vivo [9] [h] | total protein half-life in vivo [10] [h] | total protein half-life in vivo [11] [h] | total protein half-life in vivo [12] [h]
MQAIPMTLRGAEKLREELDFLKSVRRPEIIAAIAEAREHGDLKENAEYHAAREQQGFCEGRIKDIEAKLSNAQVIDVTKMPNNGRVIFGATVTVLNLDSDEEQTYRIVGDDEADFKQNLISVNSPIARGLIGKEEDDVVVIKTPGGEVEFEVIKVEYL [P0A6W5] | 5.3 ± 0.11 | 4.38 ± 0.77 | 3.21 ± 0.12 | 3.76 ± 0.18 | 2.44 ± 0.26 | 2.57 ± 0.24 | 4.48 ± 0.2 | 6.41 ± 0.17 | 3.27 ± 0.066 | 4.46 ± 0.28 | 3.75 ± 0.55 | 6.8 ± 0.8
MTTPLKKIVIVGGGAGGLEMATQLGHKLGRKKKAKITLVDRNHSHLWKPLLHEVATGSLDEGVDALSYLAHARNHGFQFQLGSVIDIDREAKTITIAELRDEKGELLVPERKIAYDTLVMALGSTSNDFNTPGVKENCIFLDNPHQARRFHQEMLNLFLKYSANLGANGKVNIAIVGGGATGVELSAELHNAVKQLHSYGYKGLTNEALNVTLVEAGERILPALPPRISAAAHNELTKLGVRVLTQTMVTSADEGGLHTKDGEYIEADLMVWAAGIKAPDFLKDIGGLETNRINQLVVEPTLQTTRDPDIYAIGDCASCPRPEGGFVPPRAQAAHQMATCAMNNILAQMNGKPLKNYQYKDHGSLVSLSNFSTVGSLMGNLTRGSMMIEGRIARFVYISLYRMHQIALHGYFKTGLMMLVGSINRVIRPRLKLH | 6.51 ± 0.53 | 6.87 ± 1.2 | 6.08 ± 0.085 | 6.332 ± 0.062 | 5.82 ± 0.36 | 3.15 ± 0.057 |  | 11.78 ± 0.097 | 6.12 ± 0.28 | 12.7 ± 0.44 | 6.07 ± 0.096 | 14.2 ± 0.38
MLDEKSSNTASVVVLCTAPDEATAQDLAAKVLAEKLAACATLIPGATSLYYWEGKLEQEYEVQMILKTTVSHQQALLECLKSHHPYQTPELLVLPVTHGDTDYLSWLNASLR | 4.37 | 4.22 ± 1.7 | 3.56 |  | 3.26 ± 0.26 |  |  | 7.25 | 3.34 ± 0.39 | 4.91 ± 0.15 | 5.13 ± 0.32 | 
MKNTELEQLINEKLNSAAISDYAPNGLQVEGKETVQKIVTGVTASQALLDEAVRLGADAVIVHHGYFWKGESPVIRGMKRNRLKTLLANDINLYGWHLPLDAHPELGNNAQLAALLGITVMGEIEPLVPWGELTMPVPGLELASWIEARLGRKPLWCGDTGPEVVQRVAWCTGGGQSFIDSAARFGVDAFITGEVSEQTIHSAREQGLHFYAAGHHATERGGIRALSEWLNENTDLDVTFIDIPNPA [P0AFP6] | 4.31 ± 0.15 | 3.736 ± 0.0077 | 3.9 ± 0.38 | 4.42 ± 0.65 | 3.7 ± 0.28 | 2.86 ± 0.27 | 6.13 ± 0.52 | 10.3 ± 0.29 | 3.66 ± 0.23 | 5.74 ± 0.75 | 5.26 ± 0.41 | 11.2 ± 1.2
MPVFALLALVAYSVSLALIVPGLLQKNGGWRRMAIISAVIALVCHAIALEARILPDGDSGQNLSLLNVGSLVSLMICTVMTIVASRNRGWLLLPIVYAFALINLALATFMPNEYITHLEATPGMLVHIGLSLFSYATLIIAALYALQLAWIDYQLKNKKLAFNQEMPPLMSIERKMFHITQIGVVLLTLTLCTGLFYMHNLFSMENIDKAVLSIVAWFVYIVLLWGHYHEGWRGRRVVWFNVAGAVILTLAYFGSRIVQQLIS |  |  |  |  |  |  |  | 13.6 | 6.45 |  |  | 15.5
MSVIIVGGGMAGATLALAISRLSHGALPVHLIEATAPESHAHPGFDGRAIALAAGTCQQLARIGVWQSLADCATAITTVHVSDRGHAGFVTLAAEDYQLAALGQVVELHNVGQRLFALLRKAPGVTLHCPDRVANVARTQSHVEVTLESGETLTGRVLVAADGTHSALATACGVDWQQEPYEQLAVIANVATSVAHEGRAFERFTQHGPLAMLPMSDGRCSLVWCHPLERREEVLSWSDEKFCRELQSAFGWRLGKITHAGKRSAYPLALTHAARSITHRTVLVGNAAQTLHPIAGQGFNLGMRDVMSLAETLTQAQERGEDMGDYGVLCRYQQRRQSDREATIGVTDSLVHLFANRWAPLVVGRNIGLMTMELFTPARDVLAQRTLGWVAR | 5.61 ± 0.23 | 4.77 ± 0.24 | 6.05 ± 2.4 | 3.69 ± 0.053 | 4.23 ± 0.17 | 2.72 ± 0.17 | 4.42 ± 0.18 | 6.83 ± 0.21 | 4.24 ± 1.1 | 9.5 | 2.82 ± 0.096 | 4.59 ± 0.42
MTKSELIERLATQQSHIPAKTVEDAVKEMLEHMASTLAQGERIEIRGFGSFSLHYRAPRTGRNPKTGDKVELEGKYVPHFKPGKELRDRANIYG [P0A6Y1] | 6.88 ± 0.81 | 5.26 ± 0.3 | 5.99 ± 1.1 | 6.3 ± 0.4 | 4.64 ± 0.21 | 2.47 ± 0.093 | 4.3 ± 0.44 | 6.05 ± 0.37 | 4.71 ± 0.18 | 8.31 ± 2.4 | 2.62 ± 0.24 | 5.3658 ± 0.0042
